Laboratory results as given in publication doi:10.1101/2025.09.24.678203 (bioRxiv, 2025).

T1: T. brucei canonical histone H2A (T. brucei brucei, UniProt Q57YA3 2-134)
T1 construct: Canonical histone H2A of Trypanosoma brucei brucei, Tb927.7.2820, pET21a plasmid from the Janzen lab; also called Tb H2A
T1 sequence: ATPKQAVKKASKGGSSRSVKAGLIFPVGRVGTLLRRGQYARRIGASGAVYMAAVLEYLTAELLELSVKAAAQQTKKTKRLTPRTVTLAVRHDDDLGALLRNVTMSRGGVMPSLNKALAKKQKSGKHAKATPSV


Assays:
[1] = target: T1, T. brucei canonical histone H2A; experiment: cryo-EM structure; H3.V-H4.V NCP (H2A, H2B, H3.V, H4.V) wrapped with Widom 601 145 bp DNA, crosslinked with 0.05% glutaraldehyde, separated by SEC; grids in 10 mM Tris pH 8.0, 30 mM NaCl, 1 mM EDTA, 1 mM DTT; global resolution 3.2 Å; details: both partners purified
[2] = target: T2, T. brucei canonical histone H3 (T. brucei brucei, UniProt Q4GYX7 2-133); experiment: in vitro reconstitution of histone octamers and nucleosomes (SEC, native PAGE, SDS-PAGE); purified histones combined at a 1.2:1.2:1:1 H2A:H2B:H3(V):H4(V) molar ratio, dialysed into 2 M NaCl Octamer Buffer, octamers purified on Superdex200; wrapped with Widom 601 145 bp, Widom 603 177 bp or Widom 603 193 bp DNA by salt gradient dialysis; checked by native and SDS PAGE; details: both partners purified
T2 construct: Canonical histone H3 of Trypanosoma brucei brucei, Tb927.1.2430, pET21a plasmid from the Janzen lab; also called Tb H3

Binder	binding result [1]	binding result [2]
T. brucei canonical histone H2B (natural protein, T. brucei brucei, Canonical histone H2B of Trypanosoma brucei brucei, Tb927.10.10480, pET21a plasmid from the Janzen lab; also called Tb H2B) ATPKSTPAKTRKEAKKTRRQRKRTWNVYVSRSLRSINSQMSMTSRTMKIVNSFVNDLFERIAAEAATIVRVNRKRTLGARELQTAVRLVLPADLAKHAMAEGTKAVSHASS	binds	
T. brucei canonical histone H4 (natural protein, Canonical histone H4 of Trypanosoma brucei brucei, Tb927.5.4170, pET21a plasmid from the Janzen lab; also called Tb H4) not shown		binds
